The supplement of paper PMC12764529
± gives the half width of the 95% confidence interval.

Key:
[1] = folding stability dG unfold from trypsin proteolysis; higher = more stable
In short: (§1)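 Digests were run with trypsin and chymotrypsin at 11 concentrations in threefold dilutions, plus a no-protease condition, on designed mini-proteins in a PA-tagged cDNA display construct. The mini-proteins were under 80 residues, had no cysteine, and were kept only when AlphaFold2 dimer inter-PAE was above 15. After sequencing, Bayesian fitting of the counts gave K50, from which unfolding free energy was derived against a sequence-predicted unfolded-state K50 and a shared folded-state K50, per protease or combined.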

[2] = folding stability dG unfold (combined trypsin and chymotrypsin); higher = more stable
In short: as §1

[3] = folding stability dG unfold from chymotrypsin proteolysis; higher = more stable
In short: as §1

Row | Sequence | folding stability dG unfold [1] [kcal/mol] | folding stability dG unfold [2] [kcal/mol] | folding stability dG unfold [3] [kcal/mol]
1 | SKPPSDPGSIEFSFPDSSNVTVTIPVPLPPNTTVSISLSDGKSYTVPGGTTFTFTLPPGKPFTVTVNIRSSA [r9_79_JUSTAS] | 3.75 ± 0.2 | 4.23 ± 0.2 | 4.47 ± 0.061
2 | SAGGSAGGSAGMNITITFPDGTVVEIPDVPPEYADVTPEKLKEEVLKKYPNVNVKVSPNGSAGGSAGGSAGG [r17_42_JUSTAS] | 0.302 ± 0.055 | 0.101 ± 0.22 | 0.127 ± 0.038
3 | SAGGSAGGSAEELLKKLAEELGLEEGDEVTIEVDGKLIKIYFNKDGKIVKVEVYELDPEDLSAGGSAGGSAG [r3_468_TrROS_Hall] | 2.01 ± 0.11 | 3.25 ± 0.079 | 3.59 ± 0.087
4 | SENPVLKNRPLPVVGTTERTSVAKPGESLDVKELPSNGIVATTPDGSTVGITVTVDANGNVLSLEIKPDPSA [r9_1195_JUSTAS] | 0.00583 ± 0.068 | 0.164 ± 0.12 | 0.272 ± 0.069
5 | MSEEELRELEERLAAPGPVEVRVEVEVREEEGDEPVFVFRVRYYRPEPGEELGEEEIVVPEEELEELLRELS [r1_415_TrMRF] | 1.34 ± 0.065 | 1.93 ± 0.15 | 2.31 ± 0.086
6 | SAGGSAGGSAGGATAEELAAALKELEAKLKALLEKPEEVEVEVEVKAPEVEEVDGKLVLLSAGGSAGGSAGG [r7_44_TrROS_Hall] | 0.651 ± 0.041 | 0.145 ± 0.11 | -1.19 ± 0.33
7 | NRYYRITIRNPDGMPIELFVRRSPNGEYMVRVKINMPNKKPKTIWFPFKSPEDILEEIRKHLPWDIEIEPWS [r1_137_TrROS] | 3.46 ± 0.089 | 3.31 ± 0.087 | 3.28 ± 0.053
8 | SAEEVEIEIEIVIKMSEEEAERLAKELAEELARELGAEIVDVEVEVVEVDGELYVRIRVKIRLPKEELESAG [r14_219_TrROS_Hall] | 3.47 ± 0.098 | 4.23 ± 0.14 | 4.7 ± 0.17
9 | SAGGSAGGSAGKPVTLTDANGTPYSVSQVTTDPNSATVTATFTSPTSSTTHTATYPVTPASAGGSAGGSAGG [r11_290_JUSTAS] | 1.03 ± 0.046 | 0.791 ± 0.14 | 0.728 ± 0.13
10 | SAGGMKIEIELEDGYLRVKIYDKDGKLIEEIEIKIEKVEPPPEVEVELSPEELAKKLGVEIEIKEKESAGGS [r16_778_TrROS_Hall] | 1.62 ± 0.18 | 2.32 ± 0.44 | 2.38 ± 0.2
11 | SSVTLVLEKPLPSGKRLVVVTTLKPEPARGTVRLDVTTTTYTFSKTENGEITTSSTTSTSTETVSPEELLSA [r9_1137_JUSTAS] | 2.53 ± 0.13 | 2.49 ± 0.29 | 2.48 ± 0.18
12 | SQVKIHIPFEVEYSPENGNYFFMIRVRYPGKERPIMFPYKDPEQMREWARTIAKELAKENPDNVEIEIWWSA [r9_1148_TrROS] | 2.42 ± 0.038 | 2.73 ± 0.15 | 2.83 ± 0.095
13 | SGKVVATVPLPDGTVITVEVSPDNTVRVTVVRYRLVPNSTAPAVEVRTYTFPLPPGNPPSIQDVLDRVLSSA [r9_614_TrMRF] | 4.05 ± 0.14 | 4.41 ± 0.098 | 4.53 ± 0.053
14 | SAGGSAGGANTVTIELPNGFRITLNDDGTITISYYDPETGELVKTVTIKLPPPPPVVVVHEDDKSAGGSAGG [r6_572_TrROS_Hall] | 3.1 ± 0.23 | 3.35 ± 0.12 | 3.39 ± 0.077
15 | SAGNIRIDVHVPPDGYYMIKIRFPGNGREANIMLPPNDPDKFKELAEEIAENLFEEGFPIEVDIEPIPPSAG [r5_815_TrROS] | 1.56 ± 0.07 | 1.89 ± 0.31 | 2.34 ± 0.095
16 | SAGGSAGGSAGMTLLVKNEDGYLVKIEITEVEVDENGELHLKVKVEVLPPLEEVEEVEEESAGGSAGGSAGG [r17_536_TrROS_Hall] | 1.4 ± 0.076 | 1.65 ± 0.17 | 1.79 ± 0.054
17 | SAGGSVVTIVEVVPEDKKIVIKAPGNPITIPLENIKEIKLIPEKGYLEITINNTTIKVPLNNPNSISAGGSA [r2_48_JUSTAS] | 0.308 ± 0.051 | 0.779 ± 0.071 | 1.09 ± 0.058
18 | SAGGSPMRIRDVEIEEFDPDAGRIEIRFPSNGNTIKIPIPPGHKSLKIKIRMKNGEPFEQTITIPPSAGGSA [r2_132_TrROS] | 0.578 ± 0.14 | 1.01 ± 0.22 | 1.08 ± 0.12
19 | SAGGMITEKVEKIDDGEIIKLTANLSDPSPVVAWLKATGKNVKLVEIKPTTDPETGNTTVNATFLLPSAGGS [r16_699_JUSTAS] | 0.109 ± 0.25 | 0.0229 ± 0.22 | -0.234 ± 0.41
20 | SAGGSAGGSAGGPLKEAVEAAVASGAPEAEYLLVTPEGELRVTVKVYPEEGKVEVEVSPLSAGGSAGGSAGG [r17_475_TrMRF] | 0.903 ± 0.018 | 0.555 ± 0.037 | 0.0794 ± 0.063
21 | SAGGSAGGSAGGLRAKIVEIKEVKVKKLYKDPETNEWYEEEKTVKVIKIKIEPAKPGEKISAGGSAGGSAGG [r17_530_TrROS_Hall] | 0.537 ± 0.08 | 0.947 ± 0.13 | 1.14 ± 0.044
